{"source": "patent US20160194653A1"}
{"molecular_target": "GAL4 activation domain-HAB1 fusion protein (UniProt Q9CAJ0)", "sequence (Q9CAJ0 23-511 limits assumed)": "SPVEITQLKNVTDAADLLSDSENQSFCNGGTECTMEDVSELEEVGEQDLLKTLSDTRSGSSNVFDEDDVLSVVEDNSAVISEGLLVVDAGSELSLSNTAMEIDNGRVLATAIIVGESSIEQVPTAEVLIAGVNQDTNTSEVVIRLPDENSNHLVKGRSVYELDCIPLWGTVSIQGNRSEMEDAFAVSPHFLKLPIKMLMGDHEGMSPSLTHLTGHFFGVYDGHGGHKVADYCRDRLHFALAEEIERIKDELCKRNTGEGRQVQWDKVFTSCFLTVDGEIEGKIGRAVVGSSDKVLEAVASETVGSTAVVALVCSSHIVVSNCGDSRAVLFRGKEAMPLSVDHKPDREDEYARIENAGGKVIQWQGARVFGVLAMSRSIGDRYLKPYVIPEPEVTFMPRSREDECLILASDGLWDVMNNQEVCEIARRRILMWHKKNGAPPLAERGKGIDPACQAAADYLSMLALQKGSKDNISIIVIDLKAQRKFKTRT", "assay": "cell-based or functional assay", "units": {"Minimal conc. For ABA response": "µM", "uracil-independent growth (URA3 reporter, yeast two-hybrid) on medium with ABA": "nM"}}
{"substance": "PYR1 mutant E141T (from UniProt P04386 1-147) (receptor)", "Minimal conc. For ABA response": 0.5}
{"substance": "PYR1 mutant E141C (from UniProt P04386 1-147) (receptor)", "Minimal conc. For ABA response": 0.5}
{"substance": "PYR1 mutant V81Y (from UniProt P04386 1-147) (receptor)", "Minimal conc. For ABA response": 0.25}
{"substance": "PYR1 mutant F61M (from UniProt P04386 1-147) (receptor)", "Minimal conc. For ABA response": 0.25}
{"substance": "PYR1 mutant A160C (from UniProt P04386 1-147) (receptor)", "Minimal conc. For ABA response": 0.25}
{"substance": "PYR1 mutant F61L (from UniProt P04386 1-147) (receptor)", "Minimal conc. For ABA response": 0.25}
{"substance": "PYR1 mutant I110S (from UniProt P04386 1-147) (receptor)", "Minimal conc. For ABA response": 0.5}
{"substance": "PYR1F61L, A160C (from UniProt P04386 1-147) (receptor)", "uracil-independent growth (URA3 reporter, yeast two-hybrid) on medium with ABA": 50}
{"substance": "PYR1 mutant A160I (from UniProt P04386 1-147) (receptor)", "Minimal conc. For ABA response": 0.25}
{"substance": "PYR1 mutant E141M (from UniProt P04386 1-147) (receptor)", "Minimal conc. For ABA response": 0.25}
{"substance": "PYR1 mutant E141Y (from UniProt P04386 1-147) (receptor)", "Minimal conc. For ABA response": 0.25}
{"substance": "PYR1F61M, A160V (from UniProt P04386 1-147) (receptor)", "uracil-independent growth (URA3 reporter, yeast two-hybrid) on medium with ABA": 50}
{"substance": "PYR1F61L, V81I, I110C, A160V (from UniProt P04386 1-147) (receptor)", "uracil-independent growth (URA3 reporter, yeast two-hybrid) on medium with ABA": 50}
{"substance": "PYR1 mutant I110C (from UniProt P04386 1-147) (receptor)", "Minimal conc. For ABA response": 0.25}
{"substance": "PYR1 mutant E141I (from UniProt P04386 1-147) (receptor)", "Minimal conc. For ABA response": 0.25}
{"substance": "PYR1F61M, I110S, A160V (from UniProt P04386 1-147) (receptor)", "uracil-independent growth (URA3 reporter, yeast two-hybrid) on medium with ABA": 50}
{"substance": "PYR1 mutant E141W (from UniProt P04386 1-147) (receptor)", "Minimal conc. For ABA response": 0.5}
{"substance": "PYR1 mutant A160V (from UniProt P04386 1-147) (receptor)", "Minimal conc. For ABA response": 0.25}
{"substance": "PYR1 mutant E141V (from UniProt P04386 1-147) (receptor)", "Minimal conc. For ABA response": 0.5}
{"substance": "PYR1 mutant V81I (from UniProt P04386 1-147) (receptor)", "Minimal conc. For ABA response": 0.25}
{"substance": "PYR1 mutant E141L (from UniProt P04386 1-147) (receptor)", "Minimal conc. For ABA response": 0.25}
{"substance": "PYR1 mutant E141N (from UniProt P04386 1-147) (receptor)", "Minimal conc. For ABA response": 0.5}
